These results are taken from patent publication US20160115235A1 (ARES TRADING S A, published 2016).

The target in experiment [1] is T1, human CXCR5 (human, UniProt P32302 1-372).
T1 construct: Full length, on stably transfected cells (HEK-293, L1.2, R1610 and others), made with or without a C-terminal tag, or native on primary human B cells; also called hCXCR5; BLR-1
T1 sequence: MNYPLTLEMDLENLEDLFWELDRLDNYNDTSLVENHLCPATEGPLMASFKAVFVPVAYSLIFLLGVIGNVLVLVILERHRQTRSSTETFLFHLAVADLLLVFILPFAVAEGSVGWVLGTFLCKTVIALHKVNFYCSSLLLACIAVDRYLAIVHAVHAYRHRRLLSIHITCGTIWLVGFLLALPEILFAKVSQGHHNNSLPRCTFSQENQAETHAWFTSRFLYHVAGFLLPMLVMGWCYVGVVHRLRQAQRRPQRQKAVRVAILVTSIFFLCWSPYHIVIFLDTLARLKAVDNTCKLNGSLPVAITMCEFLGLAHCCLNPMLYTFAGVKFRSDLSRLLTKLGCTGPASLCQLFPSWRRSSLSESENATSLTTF
Description: flow cytometry, Alexa Fluor 647 labelled mAb on HEK-293 cells stably transfected with human CXCR5; 40C01-VH1-Vk3, Alexa Fluor 647 labelled, HEK-293 cells with human CXCR5. As to the method: (§1) Anti-CXCR5 40C01-VH1-Vk3 and VH2-Vk3 variants were labelled with Alexa Fluor 647 dye using monoclonal antibody labelling kit from Invitrogen (Cat #A20186). Binding of labelled mAbs to HEK-293 cells stably transfected with human CXCR5 was examined by a direct immunofluorescence assay. A total of 1×10⁵ stable HEK-293 cells over-expressing human CXCR5 were incubated with 1 in 3 serially diluted Alexa Fluor 647 mAbs ranging from 60 μg/ml to 0.33 ng/ml in FACS buffer (PBS containing 1% BSA and 0.1% NaN₃) for 1 h on ice. Cells were washed twice with FACS buffer and analyzed on FACSCalbur flow cytometer (BD Biosciences).
(Flow cytometry measures light scatter and fluorescence of single cells or particles in a stream.)

For another experiment, the target named is T2, human CXCR2 (human, UniProt P25025 1-360).
T2 construct: whole, on cells; Native on the granulocyte population of human whole blood
T2 sequence (looked up): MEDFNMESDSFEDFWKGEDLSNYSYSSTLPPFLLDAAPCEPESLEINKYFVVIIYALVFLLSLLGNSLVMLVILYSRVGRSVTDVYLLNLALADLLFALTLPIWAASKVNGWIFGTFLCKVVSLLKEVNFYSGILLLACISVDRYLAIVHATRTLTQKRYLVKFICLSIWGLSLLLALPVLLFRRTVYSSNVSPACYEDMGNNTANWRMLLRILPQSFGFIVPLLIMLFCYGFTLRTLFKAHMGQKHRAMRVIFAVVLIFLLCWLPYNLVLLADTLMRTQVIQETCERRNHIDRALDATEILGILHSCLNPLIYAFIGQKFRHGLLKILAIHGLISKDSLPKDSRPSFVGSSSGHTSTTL
Description: flow cytometry, Alexa-Fluor 647 labelled mAb in human whole blood. As to the method: (§2) 40C01-VH1-Vk3 and VH2-Vk3 variants were labelled with Alexa Fluor 647 dye using monoclonal antibody labelling kit from Invitrogen (Cat #A20186). Blood was collected in sodium-heparinised tubes and rested for 2 h at RT. Sodium azide (NaN₃) was then added to whole blood to a final concentration of 0.01%. Serial 1 in 3 dilutions of Alexa-Fluor 647 labelled-mAbs ranging from 60 μg/ml to 3 ng/ml were added to blood samples and incubated for 30 min at RT. Phycoerythrin (PE) labelled anti-CD19 (BD Pharmingen, cat#555413) and anti-human CXCR2 (R&D Systems, cat #FAB331P) mAbs and their respective isotype controls were used for gating B cells and monitoring CXCR2 expression on granulocytes, respectively. Labelled red blood cells were then lysed using the human erythrocyte lysing kit from R&D Systems (Cat # WL1000) and the blood cells resuspended in FACS buffer (PBS-1% BSA, 0.1% NaN₃) and analysed by flow cytometry on FACS Calibur 3 (BD Biosciences). The EC₅₀ and ECB, values were calculated by plotting the FL4 fluorescence (emission of Alexa Fluor 647 dye) as a function of the antibody concentration. […] No binding of the two 40C01 variants was detected on the granulocyte population which expresses CXCR2 (neutrophils).

Experiment [2] has as its target T1, human CXCR5. Description: flow cytometry, Alexa Fluor 647 labelled mAb on CD19-gated human B cells in whole blood. The method, then: as §2
Experiment [3] has as its target T1, human CXCR5. Kind of experiment: cell-based or functional assay.
For experiment [4], the target named is T3, cynomolgus monkey (Macaca fascicularis) CXCR5 (cynomolgus monkey (Macaca fascicularis), UniProt P32302 1-372 (human entry)).
T3 chain: T1 sequence with W19L, L21F, R23K, L24F, L180F, G193A, H195P, A285V, K295E, R357K
Description: cell-based or functional assay.

In experiment [5] the target is T1, human CXCR5. Description: cell-based or functional assay. The source holds these as a separate data set.
For experiment [6], the target named is T3, cynomolgus monkey (Macaca fascicularis) …. Description: cell-based or functional assay.
Experiment [7] addresses T1, human CXCR5. Description: cell-based or functional assay. The source holds these as a separate data set.
Experiment [8] addresses T1, human CXCR5. Kind of experiment: flow cytometry, Alexa Fluor 647 labelled mAb on HEK-293 cells stably transfected with human CXCR5; 40C01-VH2-Vk3, Alexa Fluor 647 labelled, HEK-293 cells with human CXCR5. The method, then:
as §1

The target in experiment [9] is T1, human CXCR5. Description: KinExA, IgG2 mAb equilibrated with HEK-293 cells expressing human CXCR5, n-curve analysis. As to the method: Kinetic Exclusion Assay (KinExA) was used to determine the concentration of the free antibody that remains in solution after equilibrium has been established between the fully human IgG2 (subtype HC2h, as described in WO2009010290) anti-CXCR5 40C01 antibody variants and human CXCR5 expressed on the cell surface of stably transfected HEK-293 cells, from which the equilibrium dissociation constant (Kd) was determined. This method provides a true measure of the affinity/avidity of the antibody to integral membrane proteins like GPCRs.
HEK-293 cells, stably expressing human CXCR5, an integral membrane protein with 7 trans membrane domains, were harvested using Accutase cell detachment solution, resuspended at 2×10⁶ cells/ml and serially diluted 1 in 2 in 15 falcon tubes using KinExA buffer (PBS containing 1 mg/ml BSA and 0.02% NaN₃). An appropriate constant concentration of purified mAb was made in KinExA buffer and an equal volume of the mAb was mixed with the serially diluted cells. […] The cells were then centrifuged and the free mAb present in the supernatant was measured by KinExA using PMMA beads (Sapidyne Instruments, cat#440198) coated with goat anti-human IgG (H+L) (Jackson ImmunoResearch, cat#109-005-003) and DyLight 649-conjugated anti-human secondary antibody (Jackson ImmunoResearch, Goat anti-human Fc, cat#109-495-098) used at 1 μg/ml in KinExA buffer. […]
For orientation: Kinetic exclusion samples the free partner from a solution-phase mixture.

For experiment [10], the target named is T3, cynomolgus monkey (Macaca fascicularis) …. Description: cell-based or functional assay.

Residue numbers refer to the chain shown, from its start.

B1: anti-CXCR5 40C01-VH1-Vk3 variant (isotype not stated in the example) (antibody, V domains shown)
VH: EVQLLESGGGLVQPGGSLRLSCAASGFTFSRYVMVWVRQAPGKGLEWVSGISPSGGVTRYAASVKGRFTISRDNSKNTLYLQMNSLRAEDTAVYYCARIRKEMTTISYFFDYWGQGTLVTVSS
VL: DIQMTQSPSSLSASVGDRVTITCRASQGVDAYVAWYQQKPGKVPKLLIYSTSTLASGVPSRFSGSGSGTDFTLTISSLQPEDVATYYCQSHNAAVVTFGQGTRLEIK
notes: also called Alexa-Fluor 647 labelled 40C01-VH1-Vk3
In the case of B1, the figures for the EC50 with human CXCR5 [1] and with human CXCR5 [2] were 2.26 nM and 1.92 nM, respectively. Also, in the experiment with human CXCR2, the binding result is “no binding (tested: 60 µg/ml to 3 ng/ml tested)”.

B2: anti-CXCR5 40C01-VH2-Vk3 as IgG1 (antibody)
VH: B1 VH with Y32S, M103K
light: DIQMTQSPSSLSASVGDRVTITCRASQGVDAYVAWYQQKPGKVPKLLIYSTSTLASGVPSRFSGSGSGTDFTLTISSLQPEDVATYYCQSHNAAVVTFGQGTRLEIKRTVAAPSVFIFPPSDEQLKSGTASVVCLLNNFYPREAKVQWKVDNALQSGNSQESVTEQDSKDSTYSLSSTLTLSKADYEKHKVYACEVTHQGLSSPVTKSFNRGEC
In the case of B2, the “IC50, inhibition of human CXCR5-L1.2 cell chemotaxis” value with human CXCR5 [3] came out at 0.05 nM. Also, the “efficacy of inhibition of CXCL13-stimulated L1.2-CXCR5 chemotaxis” value (in the experiment with human CXCR5 [3]; in experiment [4]) was 100% each time. For the same molecule, the “mean IC50, inhibition of CXCL13-stimulated chemotaxis of primary human B cells in human serum” value with human CXCR5 [3] was 0.34 nM. Moreover, the “IC50, inhibition of CXCL13-induced L1.2-CXCR5 chemotaxis” value with human CXCR5 [5] stood at 0.098 nM; in experiment [6], 0.17 nM. For the same molecule, the “IC50, inhibition of ERK phosphorylation in whole blood (B cells, CXCL13-stimulated)” value (“IC50, inhibition of ERK phosphorylation” for short) with human CXCR5 [7] is 0.45 nM.

B3: anti-CXCR5 40C01-VH2-Vk3 variant (isotype not stated in the example) (antibody, V domains shown)
VH: B1 VH with Y32S, M103K
VL: B1 VL
notes: also called Alexa-Fluor 647 labelled 40C01-VH2-Vk3
Turning to B3, in the experiment with human CXCR2, the binding result is given as “no binding (tested: 60 µg/ml to 3 ng/ml tested)”. In addition, the EC50 in the experiment with human CXCR5 [2] amounted to 7.22 nM; with human CXCR5 [8] it was 4.6 nM.

B4: anti-CXCR5 40C01-VH1-Vk3-IgG2_DI-NQ-HC2h (antibody)
heavy: EVQLLESGGGLVQPGGSLRLSCAASGFTFSRYVMVWVRQAPGKGLEWVSGISPSGGVTRYAASVKGRFTISRDNSKNTLYLQMNSLRAEDTAVYYCARIRKEMTTISYFFDYWGQGTLVTVSSASTKGPSVFPLAPCSRSTSESTAALGCLVKDYFPEPVTVSWNSGALTSGVHTFPAVLQSSGLYSLSSVVTVPSSNFGTQTYTCNVDHKPSNTKVDKTVEPKSSDKTHTCPPCPAPPVAGPSVFLFPPKPKDTLMISRTPEVTCVVVDVSHEDPEVQFNWYVDGVEVHNAKTKPREEQAQSTFRVVSVLTVVHQDWLNGKEYKCKVSNKGLPAPIEKTISKTKGQPREPQVYTLPPSREEMTKNQVSLTCLVKGFYPSDIAVEWESNGQPENNYKTTPPMLDSDGSFFLYSKLTVDKSRWQQGNVFSCSVMHEALHNHYTQKSLSLSPG
light: B2 light
notes: Whole antibody, modified human IgG2 (subtype HC2h, WO2009010290), kappa light chain; also called 40C01-VH1-Vk3 as IgG2; VH1-Vk3 (isotype 2)
Turning to B4, in the experiment with human CXCR5 [9], the dissociation constant (Kd) is 0.0154 nM. The “efficacy of inhibition of CXCL13-stimulated L1.2-CXCR5 chemotaxis” value with human CXCR5 [3] was found to be 100%. Also, in the experiment with human CXCR5 [5], the “IC50, inhibition of CXCL13-induced L1.2-CXCR5 chemotaxis” value is 1.15 nM. Moreover, the “IC50, inhibition of ERK phosphorylation” value is 0.736 nM with human CXCR5 [7] and 0.195 nM in experiment [10].

B5: anti-CXCR5 40C01-VH1-Vk3-IgG1 (antibody)
heavy: not shown
light: B2 light
For B5, in the experiment with human CXCR5 [3], the “IC50, inhibition of human CXCR5-L1.2 cell chemotaxis” value is 0.38 nM; the “efficacy of inhibition of CXCL13-stimulated L1.2-CXCR5 chemotaxis” value is 100%; the “mean IC50, inhibition of CXCL13-stimulated chemotaxis of primary human B cells in human serum” value was 1.89 nM. The “efficacy of inhibition of CXCL13-stimulated L1.2-CXCR5 chemotaxis” value in experiment [4] was found to be 100%. Further, the “IC50, inhibition of CXCL13-induced L1.2-CXCR5 chemotaxis” value with human CXCR5 [5] is 1.81 nM. Besides, the “IC50, inhibition of CXCL13-induced L1.2-CXCR5 chemotaxis” value in experiment [6] came out at 0.19 nM. The “IC50, inhibition of ERK phosphorylation” value with human CXCR5 [7] was 0.17 nM.

B6: anti-CXCR5 40C01-VH2-Vk3 as IgG2 (antibody)
heavy: B4 heavy with Y32S, M103K
light: B2 light
notes: also called VH2-Vk3 (isotype 2)
On to B6, for which the Kd with human CXCR5 [9] is 0.047 nM. In addition, the “efficacy of inhibition of CXCL13-stimulated L1.2-CXCR5 chemotaxis” value with human CXCR5 [3] amounted to 100%. The “IC50, inhibition of CXCL13-induced L1.2-CXCR5 chemotaxis” value with human CXCR5 [5] amounted to 0.108 nM. Moreover, the “IC50, inhibition of ERK phosphorylation” value in the experiment with human CXCR5 [7] amounted to 0.88 nM; in [10], 1.57 nM.

The EC50 is the midpoint of the concentration-response curve. Broadly, the Kd is the free concentration of one partner at which half of the binding sites on the other are occupied at equilibrium, for simple one-to-one binding.
